Experimental findings from patent US20110223168A1 (published 2011) are described below.

For test [1], the target named is T1, hen egg lysozyme (HEL) (hen, UniProt P00698 19-147).
T1 construct: also called hen egg white lysozyme
The test is described as follows: selection from dAb libraries.

In test [2] the target is T2, human TNFα (human, UniProt P01375 77-233).
T2 construct: Coated on plates, coupled to a CM5 chip, or added in solution (10 ng/ml) in the TNF receptor assay; the assay paragraphs often print only 'TNF'; also called TNF alpha; TAR1
The test is described as follows: not stated; printed under 'Equilibrium dissocation constant (Kd = Koff/Kon)' in the data summary.

In test [3] the target is T2, human TNFα. Put plainly: TNF receptor assay: inhibition of TNF binding to TNFR1-Fc (ELISA). In general terms: In an ELISA, binding on a coated surface is turned into a signal by an enzyme label.
Test [4] has as its target bovine serum albumin (BSA) (bovine, UniProt P02769 25-607). The test is described as follows: antigen ELISA. How it is done: (§1) Binding activity of dimeric recombinant proteins was compared to monomer by Protein A/L ELISA or by antigen ELISA. Briefly, a 96 well plate is coated with antigen or Protein A/L overnight at 4° C. The plate washed with 0.05% Tween-PBS, blocked for 2 hrs with 2% Tween-PBS. The sample is added to the plate incubated for 1 hr at room temperature. The plate is washed and incubated with the secondary reagent for 1 hr at room temperature. The plate is washed and developed with TMB substrate. Protein A/L-HRP or India-HRP was used as a secondary reagent.

In test [5] the target is T2, human TNFα. Put plainly: antigen ELISA. How it is done:
as §1

Test [6] has as its target T2, human TNFα. The test is described as follows: TNF receptor assay: inhibition of TNF binding to TNFR1-Fc (ELISA). The source holds these as a separate data set.
Another test addresses T3, human p55 TNF receptor (human, UniProt P19438 30-211, limits assumed).
T3 construct: Coupled to a CM5 chip or coated on immunotubes/plates; also called TNF receptor 1; TNFα receptor
T3 sequence (looked up): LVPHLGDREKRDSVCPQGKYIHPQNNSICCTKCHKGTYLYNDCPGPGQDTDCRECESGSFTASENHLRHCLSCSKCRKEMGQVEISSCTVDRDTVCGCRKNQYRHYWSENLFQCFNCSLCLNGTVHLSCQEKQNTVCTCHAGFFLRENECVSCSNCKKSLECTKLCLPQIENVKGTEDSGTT
Put plainly: selection from dAb libraries.

Test [7] deals with T1, hen egg lysozyme (HEL). Put plainly: ELISA on HEL coated at 3 mg/ml, detection with 9e10 (anti-myc) and anti mouse IgG-HRP.
In test [8] the target is T2, human TNFα. The test is described as follows: TNF receptor assay; fermenter-expressed, cation exchange FPLC pure dimer.
Test [9] concerns the target T2, human TNFα. Put plainly: TNF receptor assay: inhibition of TNF binding to TNFR1-Fc (ELISA). The source holds these as a separate data set.

T2 sequence (P01375 77-233 limits assumed): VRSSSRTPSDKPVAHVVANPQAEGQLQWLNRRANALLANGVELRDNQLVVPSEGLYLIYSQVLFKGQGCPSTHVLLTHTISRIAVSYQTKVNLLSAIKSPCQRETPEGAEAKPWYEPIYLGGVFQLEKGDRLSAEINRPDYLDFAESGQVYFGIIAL
T1 sequence (P00698 19-147): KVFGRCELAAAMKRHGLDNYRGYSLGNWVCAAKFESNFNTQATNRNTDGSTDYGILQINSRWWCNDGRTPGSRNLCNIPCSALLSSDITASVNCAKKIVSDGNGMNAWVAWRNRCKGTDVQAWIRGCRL
Sequence of bovine serum albumin (BSA) (P02769 25-607 limits assumed): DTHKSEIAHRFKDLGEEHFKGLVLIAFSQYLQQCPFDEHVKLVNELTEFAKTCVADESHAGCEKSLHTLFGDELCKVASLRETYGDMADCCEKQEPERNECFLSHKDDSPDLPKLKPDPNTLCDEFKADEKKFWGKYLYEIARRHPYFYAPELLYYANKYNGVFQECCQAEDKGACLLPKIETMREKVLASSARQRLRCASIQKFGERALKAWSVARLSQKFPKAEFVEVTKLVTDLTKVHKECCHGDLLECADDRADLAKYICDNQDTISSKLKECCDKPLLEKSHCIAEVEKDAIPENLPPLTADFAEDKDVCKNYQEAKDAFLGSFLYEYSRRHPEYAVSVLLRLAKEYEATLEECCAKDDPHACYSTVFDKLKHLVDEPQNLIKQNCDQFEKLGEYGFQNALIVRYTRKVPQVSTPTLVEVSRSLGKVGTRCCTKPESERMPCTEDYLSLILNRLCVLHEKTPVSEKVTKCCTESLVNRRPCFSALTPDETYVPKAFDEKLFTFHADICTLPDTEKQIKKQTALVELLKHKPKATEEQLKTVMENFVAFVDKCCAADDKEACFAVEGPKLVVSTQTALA

B1: HEL4 (other)
VH: EVQLLESGGGLVQPGGSLRLSCAASGFRISDEDMGWVRQAPGKGLEWVSSIYGPSGSTYYADSVKGRFTISRDNSKNTLYLQMNSLRAEDTAVYYCASALEPLSEPLGFWGQGTLVTVSS
notes: VH dAb; also called HEL4 VH dAb; anti-hen egg white lysozyme dAb
For the molecule B1, in the test with hen egg lysozyme (HEL) [1], the binding result is “binds”.

B2: TAR1-5-19 monomer (other)
VL: DIQMTQSPSSLSASVGDRVTITCRASQSIDSYLHWYQQKPGKAPKLLIYSASELQSGVPSRFSGSGSGTDFTLTISSLQPEDFATYYCQQVVWRPFTFGQGTKVEIKR
notes: also called TAR1-5-19 dAb
One may read the Kd as the constant that tells how readily two partners part at equilibrium. Low readings indicate tighter binding, high ones weaker binding. As a reminder, the IC50 is the midpoint of a concentration-inhibition curve. Lower therefore signals greater potency in that assay. Molecule B2 registered a Kd with human TNFα [2] of 30 nM. The IC50 with human TNFα [3] was determined as 30 nM.

B3: dAb1 monomer (other)
VL: DIQMTQSPSSLSASVGDRVTITCRASQSIYDALEWYQQKPGKAPKLLIYTASRLQSGVPSRFSGSGSGTDFTLTISSLQPEDFATYYCQQVMQRPVTFGQGTKVEIKR
notes: Vκ dAb monomer; also called partner dAb in TAR1-5d1, d5, d6
For the molecule B3, the binding result was “no binding” in [4] and “binds” in the test with human TNFα [5].

B4: TAR1-5-19CYS trimer (TMEA) (other)
VL: DIQMTQSPSSLSASVGDRVTITCRASQSIDSYLHWYQQKPGKAPKLLIYSASELQSGVPSRFSGSGSGTDFTLTISSLQPEDFATYYCQQVVWRPFTFGQGTKVEIKRC
modifications: C-terminal Cys coupled to TMEA (Tris[2-maleimidoethyl]amine)
notes: also called TAR1-5-19 homotrimer; trimeric TAR1-5-19CYS
Regarding B4, the IC50 with human TNFα [6] is 0.3 nM.

B5: TAR2h-5 (other)
VH: EVQLLESGGGLVQPGGSLRLSCAASGFTFDLYNMFWVRQAPGKGLEWVSFISQTGRLTWYADSVKGRFTISRDNSKNTLYLQMNSLRAEDTAVYYCAKTLEDFDYWGQGTLVTVSS
notes: VH dAb against TNF receptor 1; also called TAR2-5; TAR2h-5 VH dAb
With B5, the binding result with human p55 TNF receptor is “binds”. The ELISA signal (background) with hen egg lysozyme (HEL) [7] turned out to be 0.069.

B6: TAR1-5-19d4 (other)
chain: DIQMTQSPSSLSASVGDRVTITCRASQSIDSYLHWYQQKPGKAPKLLIYSASELQSGVPSRFSGSGSGTDFTLTISSLQPEDFATYYCQQVVWRPFTFGQGTKVEIKRGGGGSGGGGSGGGGSGGGGSGGGGSDIQMTQSPSSLSASVGDRVTITCRASQSVKEFLWWYQQKPGKAPKLLIYMASNLQSGVPSRFSGSGSGTDFTLTISSLQPEDFATYYCQQKFKLPRTFGQGTKVEIKR
notes: also called TAR1-5-19 dimer 4
As to B6, the IC50 was 8 nM with human TNFα [8] and 2 to 5 nM with human TNFα [9].

B7: dAb3 monomer (other)
VL: DIQMTQSPSSLSASVGDRVTITCRASQSVKEFLWWYQQKPGKAPKLLIYMASNLQSGVPSRFSGSGSGTDFTLTISSLQPEDFATYYCQQKFKLPRTFGQGTKVEIKR
notes: Vκ dAb monomer; also called partner dAb in TAR1-5d4
For B7, in test [4], the binding result is listed as “no binding”.
